The target of data set [1] is voltage-gated sodium ion channel NavMs. Nature of the data set: SEC; Glyco-DIBMA native nanodiscs with labelled protein after Ni2+ affinity chromatography; absorbance at 280, 650 and 665 nm; oligomer peak at 10-11 mL. (In gel filtration, larger molecules generally elute earlier.)
Data set [2] has the same target. Briefly: native gel or EMSA; high-resolution clear native PAGE (hrCNE) with 0.01% DDM and 0.05% sodium deoxycholate, Glyco-DIBMA nanodiscs, 4 °C, fluorescence imaging. (In general: A gel shift assay detects complexes by their altered migration in electrophoresis.)
For data set [3] the target is unchanged. Briefly: fluorescence correlation spectroscopy (molecular brightness per nanodisc); Alexa Fluor 647-labelled protein in Glyco-DIBMA native nanodiscs; oligomer fraction after SEC and bands resolubilised from native gels; brightness compared with the free dye (ruler, 7.5 kHz); nM concentrations; standard buffer 150 mM NaCl or KCl, 50 mM Tris-HCl, pH 8.
Data set [4] has as its target voltage-gated potassium ion channel KvAP (Aeropyrum pernix) (UniProt Q9YDF8). Nature of the data set: native gel or EMSA; detergent-free clear native PAGE (CNE) of Glyco-DIBMA nanodiscs, 4 °C, fluorescence imaging.
Data set [5] has the same target. Briefly: SEC; Glyco-DIBMA native nanodiscs with labelled protein after Ni2+ affinity chromatography; absorbance at 280, 650 and 665 nm; oligomer peak at 10-11 mL.
For data set [6] the target is unchanged. Briefly: native gel or EMSA; high-resolution clear native PAGE (hrCNE) with 0.01% DDM and 0.05% sodium deoxycholate, Glyco-DIBMA nanodiscs, 4 °C, fluorescence imaging.
The target is the same in data set [7]. Nature of the data set: fluorescence correlation spectroscopy (molecular brightness per nanodisc); Alexa Fluor 647-labelled protein in Glyco-DIBMA native nanodiscs; oligomer fraction after SEC and bands resolubilised from native gels; brightness compared with the free dye (ruler, 7.5 kHz); nM concentrations; standard buffer 150 mM NaCl or KCl, 50 mM Tris-HCl, pH 8.

Data set [8] shares this target. The description is as above. This is another data set of the same source.
Data set [9] deals with the molecule itself. Nature of the data set: SEC; Glyco-DIBMA native nanodiscs with labelled protein after Ni2+ affinity chromatography; absorbance at 280, 650 and 665 nm; oligomer peak at 10-11 mL.
Data set [10] deals with the molecule itself. Briefly: fluorescence correlation spectroscopy (molecular brightness per nanodisc); Alexa Fluor 647-labelled protein in Glyco-DIBMA native nanodiscs; oligomer fraction after SEC and bands resolubilised from native gels; brightness compared with the free dye (ruler, 7.5 kHz); nM concentrations; standard buffer 150 mM NaCl or KCl, 50 mM Tris-HCl, pH 8.

Where two headings read alike, the source gives them in different places.

Consider “voltage-gated sodium ion channel NavMs (natural protein)”, for which the stoichiometry N in [1] and in data set [2] was 4 in each case. Moreover, in data set [3], the ratio of molecular brightness to the free dye (taken as the oligomeric state) came to 3 fold.
For “voltage-gated potassium ion channel KvAP (from UniProt Q9YDF8 1-295) (natural protein)”, the stoichiometry N in data set [4], in data set [5] and in data set [6] was 4 in each case. Further, the figures for the ratio of molecular brightness to the free dye (taken as the oligomeric state) in data set [7] and in data set [8] were 5.5 fold and 4 fold, respectively.

B1: glycerol uptake facilitator protein (GlpF) (natural protein, UniProt P0AER0 1-281, looked up)
chain: MSQTSTLKGQCIAEFLGTGLLIFFGVGCVAALKVAGASFGQWEISVIWGLGVAMAIYLTAGVSGAHLNPAVTIALWLFACFDKRKVIPFIVSQVAGAFCAAALVYGLYYNLFFDFEQTHHIVRGSVESVDLAGTFSTYPNPHINFVQAFAVEMVITAILMGLILALTDDGNGVPRGPLAPLLIGLLIAVIGASMGPLTGFAMNPARDFGPKVFAWLAGWGNVAFTGGRDIPYFLVPLFGPIVGAIVGAFAYRKLIGRHLPCDICVVEEKETTTPSEQKASL
modifications: Alexa Fluor 647 maleimide on cysteine (six cysteine positions, not all can be labeled)
notes: glycerol uptake facilitator protein GlpF, a bacterial aquaporin; Studied inside Glyco-DIBMA native nanodiscs; A monomeric fraction was also found; also called bacterial aquaporin; aqua(glycero)porin GlpF
On to B1, for which the “stoichiometry N” value in [9] worked out at 4.

B2: urea channel HpUreI L134C (natural protein)
chain: MLGLVLLYVGIVLISNGICGLTKVDPKSTAVMNFFVGGLSIICNIVVITYSALHPTAPVEGAEDIAQVSHHLTSFYGPATGLLFGFTYLYAAINHTFGLDWRPYSWYSLFVAINTIPAAILSHYSDMLDDHKVCGITEGDWWAIIWLAWGVLWLTAFIENILKIPLGKFTPWLAIIEGILTAWIPAWLLFIQHWV
modifications: Alexa Fluor 647 maleimide on the cysteine of L134C
notes: urea channel UreI (HpUreI); Studied inside Glyco-DIBMA native nanodiscs; also called bacterial hexameric urea channel
As for B2, the “stoichiometry N” value in data set [9] was 6. The “ratio of molecular brightness to the free dye (taken as the oligomeric state)” value in data set [10] is 6 fold.

The term stoichiometry N denotes the number of molecules, sites or subunits per partner or assembly.

Values taken from publication PMC12355471, “Clear Native Gel Electrophoresis for the Purification of Fluorescently Labeled Membrane Proteins in Native Nanodiscs” (Analytical Chemistry, 2025).
